Source: patent US5849558

Test system: PspGI restriction endonuclease (recombinant, pPspGIR70) (Pyrococcus species G-I-H)
Test: cleavage_in_vitro
Conditions: approximate titer of crude extract on T7 DNA; NEBuffer III, 65 C 1 h

Q: Which activity (units/g cells) does the source give for T7 DNA here?
A: 20000
